Assay: label from the status in PepcDB records

| Sequence | protein production |
| --- | --- |
| MSSLQGGISLTHIAAGIAVVALIILGVGFYAIYQELASLRSQVEGLNTRYEEISESLEEVQGAFESSRGDIESIASSLESIQDRVSKIEERLGSAATQSDLDAVARELASLTQQLEDLQARIQALEESGAEAGERLDQLAMALQDLQARLASLEERVDEVYASLYFPVTVVDGTGTPVVILERPERIVSMAPSATETLYYVGALDRVVGVDQYSDFPPELNEAKEAGEVEVIGGYWNPSIEAILSLEPDLVVGVASVPNHIQVKKVLSAYGIPVILLPDSSLEDVRESMMIVGKATGEVVGAYEAVLKFDMAVAAAGLLLEGVEPVETAVVVWPNPLFVVGGGTWEHEVIELAGGVNVYGDTQGWPQVSYESLLEADPDVIILMGGHGNSGVTVEGFIEALESQLGEAAWEIDAVASGRIYVLLDEYNDSFARPSPRTVLSIYVLAVLIQPSAFDIQPGDLPSEVSPETLDVLGLLEGRVPEEVLEFLGEALG | failed |
| MSSNNINSIISKIQQKNTATVITVGNYKGGAGKTTNVVLLAYKLAKKGLKVCVLDLDPQSNATKSLLLTKSSLYQDEVVTIEKTLMTGISEKNLDGLEVKIMDNLYLLPSYIDFEDFPKYLYKNTSNQREEDYYLKNIFTPLQGKYDIVLIDVPPMSKAVTRNAVICSDYVLISLQTHERSLSGAESYVEELNKLHNEYDLDLEVVGVLPVIHKNNGSVDQYVMEVAKETFGEDNLFENVVPQMERIKRFDVNGITDKDRHDQKVLNLYDKVSDELLDRINYFEEEKEGAING | not failed |
| MSSPLVLPSDGHYWLKNAHIPPNLVKTKVNFPENFQFPRPWEDLGLYHLEIADGKIKNIVAVGQGEESDLVTDDGVPRVDLSKRMILPCFVDMHTHLDKGHIWGRSPNVDGTFSGAIASTERDAELHHSPEDIYRRMEFALQCSYAHGTAAVRTHIEMAGQKSQIAWQTFQQLRQAWADRLTLQGVAMVTTDYYLGSAGEKLADQMAHGGGILGGVAYAGPQVEAQLTRLMTLAQARNLAIDLHVDENGDRRSRVLHQVAAIALKVGFTGQIVCGHCCSLDVQSPQQVQQTLALVKQANIAIISLPLCNLYLQGRHQPQKPAWRGITKVHAIHAEGIPLVFASDNCRDPFFPFGDHDGLEILNQSVRIGQLDPPYGHWCATVNQTPAQLMGLADYGRLAVNGPADLVIFPARYFSEIFSRPQGDRLVIRKGKPTHKKTPHYQELDDLMGA | failed |
| MSSPVVEIQIWSDLICPWCWIGKRRLERALRNSSLFADIKVRHRAFRLMPELIPLPVIDVLQQRYGGSAEQIVAIQQRIEKIAAEESLIYRLVGTQGADTLQAHRLLYLAHRQGLQEVLLERFYSAYFSEGTPIFDTDTLAPLALDVGLERTAVAALFAGQDFIAEIEDDQRRLQRYGANGVPFFLMDGRIAVNGAQPIEAFSDALAQLNADAASQSAFFLR | failed |
| MSSSSDAPLVATRWVEIGLALFTAALGAIVMYGSQDIGIGWGDSGPEAGYFPFYIGLLLSAASLGNLLLALCRWRALGTSFVARTAFRRVLAVFLPIAAYVAAMPFAGIYLASALFIAWFMWRDRSRDKPYGVPLIVTLSCGAALASYLVFAVWFKVPLDAGILVDLAAFVGSARP | failed |
| MSSSSGNQNSKEHKVAVTHDLGKTNVPEHPKRVVVLELGFIDTLLDLGITPVGVADDNKAKQLINKDVLKKIDGYTSVGTRSQPSMEKIASLKPDLIIADTTRHKKVYDQLKKIAPTIALNNLNADYQDTIDASLTIAKAVGKEKEMEKKLTAHEEKLSETKQKISANSQSVLLIGNTNDTIMARDENFFTSRLLTQVGYRYAISTSGNSDSSNGGDSVNMKMTLEQLLKTDPDVIILMTGKTDDLDADGKRPIEKNVLWKKLKAVKNGHVYHVDRAVWSLRRSVDGANAILDELQKEMPAAKKLEHHHHHH | failed |
| MSSSSSKIVVYAALVGNLLIALSKFIAAYFTNSAAMLSEAIHSVVDSLNEILLLYGLKKSQKPANYRHPFGYGRELYFWAFIVALLVFALGAVVSIYQGVSHILQPEEMKYPLVNYLVLGFAILCEGASWWVAVKNFKKMKGSLGYFEAFKRSKDPTTFTVLFEDSAALIGLIIALIGITAAQFLQIPILDGVASVLIGVVLAVSAFLLARETKGLLLGETADPELRKNVLRIAQDDEAVYSANGVLTEQIGAHQVIASLSLEFKDGLISDEIENCVNRIEAQIKQIHPEIVALFIKPQSNEVWLERMKGRLNQQNGEIVAAKVK | failed |
| MSSSSVIMDFLKYSPQPLQLITRPRHSIHHSTLRSSRRLTTSHNHSTPRSSSSHHHFSPSLDPVAEHHHHQSLDRTLDLVVESPHHHSLDPSLCHQVEFHHHPPLDIILDCQLQSLLDSAINKTLEHKEEMKTLARHSTHYLITWVEYHS | failed |
| MSSVINYEKFEKIDISSSDDDNKKKLNPHLTKLDNKDKVVIGPNGLTILKNNNDEKIKHDKYNNTSKNVEEIKDKNDEYKTIYNETNNEILNNKNDNIHVQNMNNYVADDKKYKDMFINGAVVPYEYIWNQSIHYINAFICLPLNCKAKNLIVDIKEDKLIVKIKNYKCGIIYNNNNNNNKTNQHNTQSNSFHDNVEILVDKKFPFKINTDEDTQIWEIKNMQINWYTLFNLSNEINNQNVHYLFEDYNMLDKQETFLYISVKKINEIENAYIWWSTLFKNEHPIKIENLPSRSSTNKAKKTMNSFKTAWDEAHEIFKKNISMKQLPFRIDSS | failed |
| MSSVSLQDFDAERIGLFHEDIKRKFDELKSKNLKLDLTRGKPSSEQLDFADELLALPGKGDFKAADGTDVRNYGGLDGIVDIRQIWADLLGVPVEQVLAGDASSLNIMFDVISWSYIFGNNDSVQPWSKEETVKWICPVPGYDRHFSITERFGFEMISVPMNEDGPDMDAVEELVKNPQVKGMWVVPVFSNPTGFTVTEDVAKRLSAMETAAPDFRVVWDNAYAVHTLTDEFPEVIDIVGLGEAAGNPNRFWAFTSTSKITLAGAGVSFFLTSAENRKWYTGHAGIRGIGPNKVNQLAHARYFGDAEGVRAVMRKHAASLAPKFNKVLEILDSRLAEYGVAQWTVPAGGYFISLDVVPGTASRVAELAKEAGIALTGAGSSYPLRQDPENKNLRLAPSLPPVEELEVAMDGVATCVLLAAAEHYAN | not failed |
| MSSWPQERRDSLLELVRKSREIFSSMKPLLRVGDRPRAVFVGDTHGAFMVTKYVFENFSDYDAIVFLGDYVDREPYGLENLEIILSHFVENKDKVIVLRGNHESPLTNEYYGFRAEVREKLGDENYKEFVDLFSEMPYAAIVNNYLCVHGGIARNLKNVQQIEELKKPDIIPEDEIAFEMLWNDPREELDGFVPNIRGEGTFFYGKDVTLEFLKENSLKGIIRGHEVADGFRSEIDERVITVFSSRYHKMRAGILLQDGEKFNMVYLDEEFLLKGDKS | failed |
| MSTAGLFSIFLIGIASNLDNAGVGIAYGIRKIRISWFNNFIIAFFGFLFTLLAGFFGNWIALFISEFTANLIGAIVLGIIGVFILCQPFLGQRNTVGSKDGNVLMGILRDPEKADFDGSKTISFSEAIVLGIALSINNIAGGFDAGITNLNLWLTATISGVFSFICISGFAYVGKRFLAEYLGKWATIIAEVLLILIGIDQLL | failed |
| MSTDQTPTAAGSGFSYTLTRTLDAPAARVWQAWTTPDQYAQWAYAVPGSVEMDVRPGGTWKATMRTPDGTEFPLTGSYIEVAEHRALTIGMNVPGRPDPATMTVELAEEGPRNTVITLRQTCDTAEERDGAEQGSGMLLDGLTGFLAGGKQG | failed |
| MSTEKIINLAAYAGKILLQSGAEIYRVEETMNKICTAFNVKEAESFVTPTGIIISITGEDEKITSTIKRIQVRTVDLRKISEVNDLSRTLQYKNFSLEEVADKLKKIDNEKKHSDLFLIFFSAVAAGFFTLIFGGTFRDFSVSFFIGIIIKIFSIIISRLEINDFFLNMVGGAIAAFIALLFKKLGVVVYLDKTIIGSIMLLVPGLAITNAVRDTIAGDLVSGVSRALDAFFTAVAIAAGTGLVFKIWINFFGGTGL | failed |
| MSTELIAAVEAADSAEGLVRAVAALSAARTDAAIPTLISVLAFNNPGAAVVAVDGLIQLGSPAAQAILNNLDDYNYGARAWALRALAGIGEPAALPLLLSAAREDFSLSVRRAATYGLGRVRWADLSESDRLAQQQQCYETLKLCLQYDPEWVVRYAAAAALETLAPAATQLQSAIAETLNRQAHSDEERAVQARSRLAERRLAGGVLEHHHHHH | not failed |
| MSTHVTFDYSKALSFIGEHEITYLRDAVKVTHHAIHEKTGAGNDFLGWVDLPLQYDKEEFARIQKCAEKIKNDSDILLVVGIGGSYLGARAAIEMLNHSFYNTLSKEQRKTPQVLFVGQNISSTYMKDLMDVLEGKDFSINVISKSGTTTEPALAFRIFRKLLEEKYGKEEARKRIYATTDKARGALKTLADNEGYETFVIPDDVGGRFSVLTPVGLLPIAVSGLNIEEMMKGAAAGRDDFGTSELEENPAYQYAVVRNALYNKGKTIEMLINYEPALQYFAEWWKQLFGESEGKDQKGIFPSSANFSTDLHSLGQYVQEGRRDLFETVLKVGKSTHELTIESEENDLDGLNYLAGETVDFVNTKAYEGTLLAHSDGGVPNLIVNIPELNEYTFGYLVYFFEKACAMSGYLLGVNPFDQPGVEAYKKNMFALLGKPGFEELKAELEERLK | not failed |
| MSTLIQDLKAQAGIFESDADQVHGLLAEFPDPGALLHAAEAVREEGYRHFDTHSPFPIHGMDEAMGLGNASAVGVLTFFGGITGCVVAYLLQWWTAAVDYPLNISGKPFFAVEPSVPIMFELTILFAAFGTVAGMFALNGLPRPYNPLFYSDRFKGATDDRFFLHIAASDDEFDVEDSAAMLQRLGAHHLELVKDDGTVDA | failed |
| MSTQFSDKFIQNLKPEAKKYYIRESRGFAIVVHPSGIKNPKGTKTFLYIYTINGKRKELKLGNYPEVTLKDARIKHGEAYARLVNGEDPVTPPVIKAEPQDENLTFGHFTELYLQWSKDNHSPKWHNTIKCALNKDALPVWEYTLIASIKRRDAIAFLENVARRGIQVINLHKATSSVFDYALEREYIESNPMAGLKAKTIPALKPKARERFLSDSEIKHVWKAIDEGPGYDETKRALKLIMVTAQRPGEVAAMHRREIQTGVGKPRCKICKRCGWWTIPAERMKNGEEHRIYLTPTALELIGDAEGYIFPSPQDGQPINRNSLSQLVSRERNNKKPNGEMYPPYYGLPEWTPHDLRRTARTLLARVGVPEEHAEEVLSHKKEGLVDRYNRHDYMEEKKEALIKLEAELMKLSI | failed |
| MSTQTSIEWTEMTWNPIVGCTKVSPGCKHCYAENMAHRLQAMGTPGYENGFKLSLRPEKLREPLQRKKPTIYFVNSMSDLFHEKVPDHYIDQVFEVIREATQHTFQILTKRAERLADYFSKRTPPTNAWLGVSVEDKAYGVPRIDCLRRVNATIRFLSAEPLLEDLGEIDLTDIHWVIVGGESGNKARPMQQEWVDNIHRQCDVSGSAFFFKQWGGWGADGVKRSKKANGRLLNGQTWDEIPLLNLALEHHHHHH | failed |
| MSTQYWEEEIEIMSREKLQELQLQRLKKTINIAANSPYYKEVFSKNGITGDSIQSLDDIRKIPFTTKSDMRANYPFGLVAGDMKRDGVRIHSSSGTTGNPTVIVHSQHDLDSWANLVARCLYMVGIRKTDVFQNSSGYGMFTGGLGFQYGAERLGCLTVPAAAGNSKRQIKFISDFKTTALHAIPSYAIRLAEVFQEEGIDPRETTLKTLVIGAEPHTDEQRRKIERMLNVKAYNSFGMTEMNGPGVAFECQEQNGMHFWEDCYLVEIIDPETGEPVPEGEIGELVLTTLDREMMPLIRYRTRDLTRILPGKCPCGRTHLRIDRIKGRSDDMFIIKGVNIFPMQVEKILVQFPELGSNYLITLETVNNQDEMIVEVELSDLSTDNYIELEKIRRDIIRQLKDEILVTPKVKLVKKGSLPQSEGKAVRVKDLRDNK | not failed |

Source: a protein production outcome set (Wang et al. 2014)
